This experiment has as its target Turkey gizzard myosin, dephosphorylated (turkey). The experiment is described as follows: electron microscopy with streptavidin-gold labelling.

The substance “Turkey gizzard myosin biotinylated with NHS-LC-biotin (complex)” yielded a percent of the filaments that contained gold particles after 24 h greater than 95%.
